Like-named read-outs stand apart in the source and are kept apart here. Square brackets hold non-standard residues; d marks the D form. Ends that are not written are not given here. * marks the point of attachment. Glc = O-glucosyl on Ser side chain (Ser(OGlu)/Ser(OGlc)); NH(3,5-(CF3)2-benzyl) = FC(F)(F)c1cc(CN*)cc(C(F)(F)F)c1; OBzl(3,5-(CF3)2) = FC(F)(F)c1cc(CO*)cc(C(F)(F)F)c1; Dmt = Cc1cc(O)cc(C)c1C[C@H](N)C(=O)O; NHBn = c1ccc(CN*)cc1
Legend:
human NK1 receptor [1] = biological target: T1, human NK1 receptor (human, UniProt P25103 1-407); experiment: competition vs [3H]Substance P, hNK1 CHO cell membranes
T1 construct: whole, on cells; membrane preparations of the transfected cells were used; also called hNK1; human neurokinin-1 receptor

rat NK1 receptor [2] = biological target: T2, rat NK1 receptor (rat, UniProt P14600 1-407); experiment: competition vs [3H]Substance P, rNK1 CHO cell membranes
T2 construct: whole, on cells; membrane preparations of the transfected cells were used; also called rNK1; rNK-1
T2 sequence (P14600 whole entry): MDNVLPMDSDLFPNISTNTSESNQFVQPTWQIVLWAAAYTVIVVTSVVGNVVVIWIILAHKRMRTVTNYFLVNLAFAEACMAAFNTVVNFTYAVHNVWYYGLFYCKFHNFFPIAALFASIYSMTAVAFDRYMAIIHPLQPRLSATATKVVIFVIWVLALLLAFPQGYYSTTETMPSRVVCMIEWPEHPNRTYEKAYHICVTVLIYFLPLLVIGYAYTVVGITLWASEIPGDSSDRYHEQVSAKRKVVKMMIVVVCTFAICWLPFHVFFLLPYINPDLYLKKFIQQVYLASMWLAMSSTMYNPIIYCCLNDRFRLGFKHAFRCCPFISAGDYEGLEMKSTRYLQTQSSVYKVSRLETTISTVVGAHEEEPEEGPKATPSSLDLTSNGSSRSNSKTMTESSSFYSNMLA

human δ opioid receptor [3] = biological target: T3, human δ opioid receptor (human, UniProt P41143 1-372); experiment: competition vs [3H]DPDPE, hDOR cell membranes
T3 construct: whole, on cells; membrane preparations of the transfected cells were used; also called hDOR; DOR
T3 sequence (P41143 whole entry, stated change not applied): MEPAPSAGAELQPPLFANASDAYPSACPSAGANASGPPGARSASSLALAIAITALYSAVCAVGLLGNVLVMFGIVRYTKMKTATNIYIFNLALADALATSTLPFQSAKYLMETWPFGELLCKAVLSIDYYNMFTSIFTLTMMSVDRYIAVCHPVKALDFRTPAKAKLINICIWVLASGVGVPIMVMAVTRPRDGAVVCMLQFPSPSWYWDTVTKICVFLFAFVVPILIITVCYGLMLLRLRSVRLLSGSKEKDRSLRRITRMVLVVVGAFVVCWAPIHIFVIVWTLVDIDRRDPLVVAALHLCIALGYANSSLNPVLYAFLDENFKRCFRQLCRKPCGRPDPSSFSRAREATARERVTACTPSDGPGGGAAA

[4] = biological target: T4, µ opioid receptor of the guinea pig isolated ileum (guinea pig, UniProt P97266 1-98); experiment: cell-based or functional assay
human δ opioid receptor [5] = biological target: T3, human δ opioid receptor; experiment: cell-based or functional assay
rat µ opioid receptor [6] = biological target: T5, rat µ opioid receptor (rat, UniProt P33535 1-398); experiment: cell-based or functional assay
T5 sequence (P33535 whole entry): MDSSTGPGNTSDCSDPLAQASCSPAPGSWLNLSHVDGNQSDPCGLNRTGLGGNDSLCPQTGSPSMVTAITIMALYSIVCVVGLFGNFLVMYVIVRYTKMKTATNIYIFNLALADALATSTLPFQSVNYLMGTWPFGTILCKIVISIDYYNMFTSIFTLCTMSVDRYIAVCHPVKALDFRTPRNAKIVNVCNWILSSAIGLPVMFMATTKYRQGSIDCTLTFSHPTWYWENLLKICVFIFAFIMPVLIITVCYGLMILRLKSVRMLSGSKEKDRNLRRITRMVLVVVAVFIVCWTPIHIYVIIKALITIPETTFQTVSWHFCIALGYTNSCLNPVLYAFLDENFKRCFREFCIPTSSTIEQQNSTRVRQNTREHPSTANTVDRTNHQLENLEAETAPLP

guinea pig NK1 receptor [7] = biological target: T6, guinea pig NK1 receptor (guinea pig, UniProt P30547 1-407); experiment: cell-based or functional assay
T6 sequence (P30547 whole entry): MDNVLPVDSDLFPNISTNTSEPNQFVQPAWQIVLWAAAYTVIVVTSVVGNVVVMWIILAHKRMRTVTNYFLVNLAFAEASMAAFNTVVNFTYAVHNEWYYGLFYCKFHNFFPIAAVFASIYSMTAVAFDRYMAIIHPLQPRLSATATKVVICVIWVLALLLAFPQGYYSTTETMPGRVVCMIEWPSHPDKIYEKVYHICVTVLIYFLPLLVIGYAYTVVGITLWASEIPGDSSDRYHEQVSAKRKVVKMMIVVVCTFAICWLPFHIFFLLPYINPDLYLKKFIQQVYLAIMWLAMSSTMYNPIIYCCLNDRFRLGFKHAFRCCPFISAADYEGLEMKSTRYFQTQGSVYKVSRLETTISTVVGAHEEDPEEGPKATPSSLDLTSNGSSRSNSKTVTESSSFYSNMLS

rat µ opioid receptor [8] = biological target: T5, rat µ opioid receptor; experiment: competition vs [3H]DAMGO, rMOR cell membranes
human NK1 receptor [9] = biological target: T1, human NK1 receptor; experiment: competition vs [3H]Substance P, hNK1 CHO cell membranes; remark: listed apart in the source
human δ opioid receptor [10] = biological target: T3, human δ opioid receptor; experiment: competition vs [3H]DPDPE, hDOR cell membranes; remark: listed apart in the source
rat NK1 receptor [11] = biological target: T2, rat NK1 receptor; experiment: competition vs [3H]Substance P, rNK1 CHO cell membranes; remark: listed apart in the source
[12] = biological target: T4, µ opioid receptor of the guinea pig …; experiment: cell-based or functional assay; remark: listed apart in the source
guinea pig NK1 receptor [13] = biological target: T6, guinea pig NK1 receptor; experiment: cell-based or functional assay; remark: listed apart in the source
human δ opioid receptor [14] = biological target: T3, human δ opioid receptor; experiment: cell-based or functional assay; remark: listed apart in the source
rat µ opioid receptor [15] = biological target: T5, rat µ opioid receptor; experiment: cell-based or functional assay; remark: listed apart in the source
human δ opioid receptor [16] = biological target: T3, human δ opioid receptor; experiment: competition vs [3H]DPDPE, hDOR cell membranes; remark: listed apart in the source
[17] = biological target: T4, µ opioid receptor of the guinea pig …; experiment: cell-based or functional assay; remark: listed apart in the source
guinea pig NK1 receptor [18] = biological target: T6, guinea pig NK1 receptor; experiment: cell-based or functional assay; remark: listed apart in the source
[19] = biological target: T4, µ opioid receptor of the guinea pig …; experiment: cell-based or functional assay; remark: listed apart in the source
guinea pig NK1 receptor [20] = biological target: T6, guinea pig NK1 receptor; experiment: cell-based or functional assay; remark: listed apart in the source
human δ opioid receptor [21] = biological target: T3, human δ opioid receptor; experiment: competition vs [3H]DPDPE, hDOR cell membranes; remark: listed apart in the source
rat NK1 receptor [22] = biological target: T2, rat NK1 receptor; experiment: competition vs [3H]Substance P, rNK1 CHO cell membranes; remark: listed apart in the source
human δ opioid receptor [23] = biological target: T7, human δ opioid receptor (human, UniProt P41143 1-372); experiment: competition vs [3H]DPDPE, membranes of hDOR-transfected HN9.10 cells
T7 construct: whole, on cells; Assayed as membrane preparations of transfected cells; also called hDOR; DOR
T7 sequence (P41143 whole entry, stated change not applied): as the sequence (P41143 whole entry, stated change not applied) above

human δ opioid receptor [24] = biological target: T7, human δ opioid receptor; experiment: cell-based or functional assay; remark: listed apart in the source
rat µ opioid receptor [25] = biological target: T8, rat µ opioid receptor (rat, UniProt P33535 1-398); experiment: cell-based or functional assay; remark: listed apart in the source
T8 sequence (P33535 whole entry): as the sequence (P33535 whole entry) above

rat NK1 receptor [26] = biological target: T9, rat NK1 receptor (rat, UniProt P14600 1-407); experiment: competition vs [3H]substance P, membranes of rNK1-transfected CHO cells
T9 construct: whole, on cells; Assayed as membrane preparations of transfected CHO cells; also called rNK1; rNK-1
T9 sequence (P14600 whole entry): as the sequence (P14600 whole entry) above

human NK1 receptor [27] = biological target: T1, human NK1 receptor; experiment: competition vs [3H]Substance P, hNK1 CHO cell membranes; remark: listed apart in the source
guinea pig NK1 receptor [28] = biological target: guinea pig NK1 receptor (guinea pig, UniProt P30547 1-407); experiment: cell-based or functional assay; remark: listed apart in the source
Target sequence in this assay (P30547 whole entry): as the sequence (P30547 whole entry) above

[29] = biological target: µ opioid receptor of the guinea pig isolated ileum (guinea pig); experiment: cell-based or functional assay
human δ opioid receptor [30] = biological target: T7, human δ opioid receptor; experiment: cell-based or functional assay; remark: listed apart in the source
rat µ opioid receptor [31] = biological target: T8, rat µ opioid receptor; experiment: cell-based or functional assay; remark: listed apart in the source
human δ opioid receptor [32] = biological target: T7, human δ opioid receptor; experiment: competition vs [3H]DPDPE, membranes of hDOR-transfected HN9.10 cells; remark: listed apart in the source
rat NK1 receptor [33] = biological target: T9, rat NK1 receptor; experiment: competition vs [3H]substance P, membranes of rNK1-transfected CHO cells; remark: listed apart in the source

T1 sequence (P25103 whole entry): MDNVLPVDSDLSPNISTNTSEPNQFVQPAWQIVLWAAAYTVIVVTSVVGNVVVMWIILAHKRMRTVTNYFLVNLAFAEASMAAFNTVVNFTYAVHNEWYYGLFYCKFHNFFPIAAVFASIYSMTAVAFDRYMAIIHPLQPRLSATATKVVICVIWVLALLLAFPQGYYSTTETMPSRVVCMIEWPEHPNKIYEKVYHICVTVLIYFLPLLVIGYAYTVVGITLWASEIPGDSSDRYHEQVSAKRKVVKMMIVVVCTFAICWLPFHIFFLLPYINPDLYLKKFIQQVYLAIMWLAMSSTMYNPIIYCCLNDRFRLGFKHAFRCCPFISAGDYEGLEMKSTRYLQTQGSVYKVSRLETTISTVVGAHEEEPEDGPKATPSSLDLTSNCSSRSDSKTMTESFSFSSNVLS
T4 sequence (P97266 whole entry): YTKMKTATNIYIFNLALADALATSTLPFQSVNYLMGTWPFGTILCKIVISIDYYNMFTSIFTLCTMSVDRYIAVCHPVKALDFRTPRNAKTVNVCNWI

Y[dA]GFS(Glc)PLW-{NH(3,5-(CF3)2-benzyl)} (also called TY042) [TyrDAlaGlyPheSer(OGlu)ProLeuTrpNHBn(CF3)2]
Ki (human NK1 receptor [1]): 0.00027 nM | Ki (rat NK1 receptor [2]): 1.5 nM | Ki (human δ opioid receptor [3]): 58.5 nM | GPI/LMMP IC50 [4]: 1890 nM | GTP binding EC50 (human δ opioid receptor [5]): 51.9 nM | GTP binding Emax (human δ opioid receptor [5]): 47% | GTP binding EC50 (rat µ opioid receptor [6]): 176 nM | GTP binding Emax (rat µ opioid receptor [6]): 28% | GPI/LMMP SP antagonist Ke (guinea pig NK1 receptor [7]): 2.83 nM | Ki (rat µ opioid receptor [8]): 256 nM

B1: DmtDAlaGlyPheNleProLeuTrpNHBn-2,4-(OMe)2 (peptide)
peptide: YAGFXPLW
modifications: not fully specified; Dmt at 1 (written Y); D-Ala at 2; Nle at 5 (written X); C-terminal dimethoxybenzyl amide (NHBn-2,4-(OMe)2 in Table 39, NH-3,5-Bn(OMe)2 in Table 31)
notes: also called TY054
Ki (human NK1 receptor [9]): 0.95 nM | Ki (human δ opioid receptor [10]): 0.15 nM

Y[dA]GFMPLW-{OBzl(3,5-(CF3)2)} (also called TY005) [TyrDAlaGlyPheMetProLeuTrpOBn(CF3)2]
IC50 (rat NK1 receptor [11]): 6.4 nM | GPI/LMMP IC50 [12]: 359 nM | GPI/LMMP SP antagonist Ke (guinea pig NK1 receptor [13]): 24.7 nM | GTP binding EC50 (human δ opioid receptor [14]): 2.9 nM | GTP binding Emax (human δ opioid receptor [14]): 47.6% | GTP binding Emax (rat µ opioid receptor [15]): 45.6% | Ki (human δ opioid receptor [16]): 2.8 nM | GPI/LMMP IC50 [17]: 359 nM | GPI/LMMP Substance P antagonist Ke (guinea pig NK1 receptor [18]): 24.7 nM | GPI (µ) IC50 [19]: 360 nM | GPI Substance P antagonist Ke (guinea pig NK1 receptor [20]): 25 nM | Ki (human δ opioid receptor [21]): 2.8 nM | Ki (rat NK1 receptor [22]): 0.2 nM

H-Y[dA]GFMPLW-NHBn (also: TFA salt, TFA salt; also called TY025) [H-Tyr-D-Ala-Gly-Phe-Met-Pro-Leu-Trp-NH-Bzl]
Ki (human δ opioid receptor [23]): 0.44 nM | LogIC50 (human δ opioid receptor [23]): -9.1 | [35S]GTPγS binding EC50 (human δ opioid receptor [24]): 2.6 nM | [35S]GTPγS binding LogEC50 (human δ opioid receptor [24]): -8.6 | [35S]GTPγS binding Emax (rat µ opioid receptor [25]): 47% | Ki (rat NK1 receptor [26]): 700 nM | LogIC50 (rat NK1 receptor [26]): -5.6

[Dmt][dA]GFMPLW-{OBzl(3,5-(CF3)2)} (also called TY033) [DmtDAlaGlyPheMetProLeuTrpOBn(CF3)2]
GPI/LMMP IC50 [17]: 100 nM | GPI/LMMP Substance P antagonist Ke (guinea pig NK1 receptor [18]): 24.5 nM | Ki (human δ opioid receptor [21]): 0.22 nM | Ki (rat NK1 receptor [22]): 0.96 nM | Ki (human NK1 receptor [27]): 1.2 nM

Y[dA]GFMPLW-NHBn (also called TY025) [TyrDAlaGlyPheMetProLeuTrpNHBn]
GPI/LMMP IC50 [17]: 61.1 nM | GPI/LMMP Substance P antagonist Ke (guinea pig NK1 receptor [18]): 9.9 nM | GPI (µ) IC50 [19]: 61 nM | GPI Substance P antagonist Ke (guinea pig NK1 receptor [20]): 9.9 nM | Ki (human δ opioid receptor [21]): 0.44 nM

H-Y[dA]GFMPLW-{OBzl(3,5-(CF3)2)} (also: TFA salt, TFA salt; also called TY005; TY5) [H-Tyr-D-Ala-Gly-Phe-Met-Pro-Leu-Trp-O-3,5-Bzl(CF3)2]
Ki (human δ opioid receptor [23]): 2.8 nM | [35S]GTPγS binding EC50 (human δ opioid receptor [24]): 2.9 nM | [35S]GTPγS binding Emax (human δ opioid receptor [24]): 48% | [35S]GTPγS binding LogEC50 (human δ opioid receptor [24]): -8.5 | [35S]GTPγS binding Emax (rat µ opioid receptor [25]): 46% | Ki (rat NK1 receptor [26]): 0.29 nM | LogIC50 (rat NK1 receptor [26]): -9 | Substance P GPI antagonist Ke (guinea pig NK1 receptor [28]): 24.7 nM | GPI (µ) opioid agonist IC50 [29]: 359 nM | [35S]GTP-γ-S binding EC50 (human δ opioid receptor [30]): 2.9 nM | [35S]GTP-γ-S binding Emax (human δ opioid receptor [30]): 51% | [35S]GTP-γ-S binding LogEC50 (human δ opioid receptor [30]): -8.54 | [35S]GTP-γ-S binding Emax (rat µ opioid receptor [31]): 45% | Ki (human δ opioid receptor [32]): 2.8 nM | LogIC50 (human δ opioid receptor [32]): -8.22 | IC50 (rat NK1 receptor [33]): 6.4 nM | LogIC50 (rat NK1 receptor [33]): -8.22

From patent publication US8026218 (UNIVERSITY OF ARIZONA, dated 2011)
